The text below walks through data of patent US11453711B2, “Fusion proteins of GLP-1 and GDF15 and conjugates thereof” (BEIJING QL BIOPHARMACEUTICAL CO., LTD., priority 2019, dated 2022).

The nature of series [1]: Body weight and food intake in lean C57BL/6 mice, lysine conjugated compounds, 15 nmol/kg daily sc 14 days. The series is classed as in vivo. The settings on record: for Body weight reduction at 15 nmol/kg (% reduction compared to vehicle)(Day11) / Cumulative food intake reduction at 15 nmol/kg (% reduction compared to vehicle)(Day11): C57 mice, 15 nmol/kg daily sc; for BW reduction: 15 nmol/kg daily sc 14 days, versus Semaglutide. The procedure: FIGS. 1A-1F show In vivo activities of fusion proteins. To evaluate the body weight and food intake effects of the fusion proteins, 10 week old male C57BL/6J mice were dosed everyday subcutaneously with 15 nmol/kg protein for 14 days. Food intake and body weight were measured daily. FIGS. 1A and 1B show body weight loss upon protein treatments from Day1 to Day15. […] FIGS. 1D and 1E show cumulative food intake with protein treatments from Day1 to Day15. […] Vehicle: 1.42 mg/mL disodium phosphate dihydrate, 14 mg/mL propylene glycol pH7.4. Data are expressed as mean values and standard error (SEM) for FIGS. 1A, 1B and 1C. n=5 for each treatment group. For FIGS. 1D, 1E and 1F, a pooled food intake was measured for each treatment group.
10 week old male C57BL/6 mice were injected everyday subcutaneously with 15 nmol/kg of the fusion protein conjugates (i.e., MLC002, MLC 004, MLC 005, MLC 006, MLC 007, MLC 008, and MLC 009) for 14 days. Food intake and body weight were measured daily and five animals were used for each treatment group. Body weight (BW) was monitored for each individual animal, but food intake for each group animals was measured together. Day 1 and Day 14 are first day and last day of molecule dosage. % BW loss=100*(BW on Day n-BW on Day 1)/(BW on Day 1). Cumulative food intake on Day n represents sum of food intake from Day 1 to Day n. Data are indicated as mean values and standard error (SEM) or pooled values. Statistical analysis was performed by One-way ANOVA. Body weight reduction on Day 11 is calculated by −1*(% BW loss−% BW loss of vehicle group); Cumulative food intake reduction is calculated by −100*(cumulative food intake-cumulative food intake of vehicle)/cumulative food intake of vehicle.

Series [2] is described as follows: Body weight and food intake in C57BL/6 mice, fusion protein conjugates, 30 nmol/kg daily 10 days. The series is classed as in vivo. In outline: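 Male C57BL/6 mice received fusion protein conjugates by daily subcutaneous injection, with dosing running from Day 1 to Day 10. Body weight was recorded daily per animal and food intake daily per group. Body weight reduction was expressed relative to vehicle percent loss from Day 1. Cumulative food intake reduction was expressed as percent decrease versus vehicle.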

Series [3] in a line: Efficacy in db/db mice: body weight, food intake, glucose, biomarkers, daily sc 14 days. The series is classed as in vivo. The procedure: FIGS. 4A-4D show In vivo efficacy in db/db mice. To evaluate the body weight, food intake and glucose effects of the fusion proteins, 8 week old male db/db mice were dosed everyday subcutaneously with 30 nmol/kg protein for 14 days. […] Compared to Vehicle control: ***, p<0.001. Data are expressed as mean values and standard error (SEM) for FIGS. 4A, 4B and 4D. n=5 for each treatment group. For FIG. 4C, a pooled food intake was measured for each treatment group.
FIGS. 5A-5F show In vivo efficacy in db/db mice. To evaluate the body weight, food intake and glucose effects of the fusion proteins, 8 week old male db/db mice were dosed everyday subcutaneously with different concentrations of proteins for 14 days. FIGS. 5A and 5B show body weight loss upon protein treatments from Day1 to Day15. […] Compared to Vehicle control: ***, p<0.001; **, p<0.01; *, p<0.05; ns, non-statistically significant; FIGS. 5D and 5E show cumulative food intake with protein treatments from Day1 to Day15. […] Compared to Vehicle control: ***, p<0.001**, p<0.01; *, p<0.05; ns, non-statistically significant. Data are expressed as mean values and standard error (SEM) for FIGS. 5A, 5B, 5C and 5F. n=5 for each treatment group. For FIGS. 5D and 5E, a pooled food intake was measured for each treatment group.
FIGS. 8A-8I show In vivo efficacy in db/db mice. To evaluate the body weight, food intake and glucose effects of the fusion proteins, 8 week old male db/db mice were dosed everyday subcutaneously with different concentrations of proteins for 14 days. […] FIGS. 8D-8F show body weight loss upon dose titrations of fusion protein conjugates. […] Data are expressed as mean values and standard error (SEM) for FIGS. 8A and 8C-I. n=5 for each treatment group. For FIG. 8B, a pooled food intake was measured for each treatment group.
Selected fusion protein conjugates are assessed in disease animal models (DIO mice, db/db mice, etc.) to determine body weight, food intake, glucose efficacy with dose responses. Some biomarkers are also measured, including fasting insulin, plasma triglyceride, cholesterol, liver triglyceride, and inflammatory biomarkers (ALT, AST and CRP).
8 week old male db/db mice were injected everyday subcutaneously with designated proteins for 14 days. Age matched lean mice were used as control. Food intake and body weight were measured daily and five animals were used for each treatment group. Fasting glucose were tested on designated days as shown in each figure. Body weight was monitored for each individual animal, but food intake for each group animals was measured together. Day 1 and Day 14 are first day and last day of molecule dosage. % BW loss=100*(BW on Day n-BW on Day 1)/(BW on Day 1). Cumulative food intake on Day n represents sum of food intake from Day 1 to Day n. Terminal blood was collected and EDTA-2K plasma was prepared and frozen at −80° C. for biomarker measurement. Liver was also collected and frozen in liquid nitrogen and store at −80° C. Data are indicated as mean values and standard error (SEM) or pooled values. Statistical analysis was performed by One-way ANOVA.

Series [4] can be described thus: Pharmacokinetic measurement in mouse, single sc dose 30 nmol/kg, plasma ELISA. The settings on record: for Cmax: read-out: Cmax (nmol/L), single sc dose 30 nmol/kg; for AUC0-24 h / Terminal t1/2 / Tmax: single sc dose 30 nmol/kg. On the technique in general: An ELISA detects its analyte on a solid surface through an enzyme-linked reagent.
Procedure: Each fusion protein was injected subcutaneously into C57BL/6 mice (n=3/group) once and plasma samples were collected at designed time points and analyzed by ELISA method. Plasma concentrations are indicated as mean values and standard error (SEM).
6-8 week old male C57BL/6 mice were administrated in a single subcutaneous dose of 30 nmol/kg of the fusion protein conjugates or unconjugated fusion proteins (i.e., MLC002, MLC004, MLC005, MLC006, MLC007, MLC008, MLC009, MLC013, MLC017, MLC047, MLC074, MLC075, MLC089, MLC093, MLC003 and MLC019) (n=3/group). Plasma samples were collected pre-dose (−5 min), 0.5 hr, 1 hr, 2 hr, 4 hr, 6 hr, 8 hr, 12 hr, 24 hr, 48 hr and 72 hr after the injection. The concentrations of the fusion protein conjugates in the plasma were measured by an ELISA assay which has immunoreactivity towards both GDF15 and intact N-terminal of GLP-1. Based on the graph showing plasma concentration of each protein versus time after subcutaneous injection, the pharmacokinetic parameters (including Tmax, Cmax, T1/2, AUC) were calculated by WinNonlin software.
Series [5] is described as follows: PK study in non-human primates, single sc dose 5 nmol/kg, plasma ELISA. The settings on record: monkey, single sc dose 5 nmol/kg.
Procedure: Plasma samples were collected pre-dose (−5 min), 2 hr, 4 hr, 6 hr, 8 hr, 24 hr, 48 hr, 72 hr, 96 hr, 120 hr, 144 hr, 216 hr, 288 hr, 360 hr, 432 hr and 504 hr after the injection. The concentrations of the fusion protein conjugates in the plasma were measured by an ELISA assay which has immunoreactivity towards both GDF15 and intact N-terminal of GLP-1. Based on the graph showing plasma concentration of each protein versus time after subcutaneous injection, the pharmacokinetic parameters (including Tmax, Cmax, T1/2, AUC) were calculated by WinNonlin software.
Where [6] appears, read: 30 nmol/kg daily 14 days, FIG. 4, versus Semaglutide.
The mark [7] stands for this setting: 30 nmol/kg, FIG. 5A-E, versus Semaglutide, Tirzepatide and MLC014.

Numbering of substitutions follows the chain as printed.

Take Semaglutide [reference compound]: in series [1], the “Body weight reduction at 15 nmol/kg (% reduction compared to vehicle)(Day11)” value came out at 7.2% and the “Cumulative food intake reduction at 15 nmol/kg (% reduction compared to vehicle)(Day11)” value is given as 23.2%. In addition, in series [2], the “Body weight reduction at 30 nmol/kg (% reduction compared to vehicle)(Day11)” value is listed as 2.6% and the “Cumulative food intake reduction at 30 nmol/kg (% reduction compared to vehicle)(Day11)” value came out at 20.9%.

B1: MLC013: fusion polypeptide SEQ ID NO: 260 conjugated with Moiety A at 1K of Linker (conjugate)
chain: HGEGTFTSDVSSYLEEQAAREFIAWLVRGGGKQEPGAQPGQEPGAQPGQEPGAQPGQEPGAQPGQEPGAQPGQEPGAQPGAQPGAQPGAQPGAQPGAQPGAQPGAQPGAQPARQGDHCPLGPGRCCRLHTVRASLEDLGWADWVLSPREVQVTMCIGACPSQFRAANLHAQIKTSLHRLRPDTVPAPCCVPASYNPMVLIQRTDTGVSLQTYDDLLARDCHCI
modifications: Moiety A conjugated at linker K1
For B1, in series [3] (setting [6]), the body weight loss entry is “sustainable and much better effect”; the food intake suppression entry was “sustainable and much better effect”. Moreover, the glucose lowering effect entry in series [3] (30 nmol/kg daily 14 days, FIG. 4D) is reported as “comparable glucose lowering effect to Semaglutide”. For the same molecule, in series [3] (setting [7]), the body weight loss entry is “sustainable and much better effect”; the food intake suppression result was “sustainable and much better effect”. In series [3] (FIG. 5 study), the efficacy entry was “better efficacy than Semaglutide and GDF15 derivative (MLC014)”. Moreover, in series [4], the Cmax came out at 38.5 nmol/L, the “AUC0-24 h” value came out at 0.5035 µM·h, the “Terminal t1/2” value turned out to be 8.9 h and the “Tmax” value amounted to 3.3 h. Further, in series [2], the “Body weight reduction at 30 nmol/kg (% reduction compared to vehicle)(Day11)” value is 21.4% and the “Cumulative food intake reduction at 30 nmol/kg (% reduction compared to vehicle)(Day11)” value is 45.2%. Also, in series [5], the “AUC0-96 h” value is 1.435 µM·h, the “Terminal t1/2” value was determined as 26 h and the “Tmax” value is 7 h. Further, in series [5] (read-out: Cmax (nmol/L)), the Cmax came to 41.3 nmol/L.

B2: MLC007: fusion polypeptide SEQ ID NO: 254 conjugated with Moiety A at 1K of Linker (conjugate)
chain: HGEGTFTSDVSSYLEEQAAREFIAWLVRGGGKQEPGQEPGQEPGQEPGQEPGQEPGQEPGQEPGAQPGAQPARQGDHCPLGPGRCCRLHTVRASLEDLGWADWVLSPREVQVTMCIGACPSQFRAANLHAQIKTSLHRLRPDTVPAPCCVPASYNPMVLIQRTDTGVSLQTYDDLLARDCHCI
modifications: Moiety A conjugated at linker K1
Regarding B2, in series [1], the BW reduction entry was “statistically significantly enhanced BW loss efficacy than Semaglutide”, the “Body weight reduction at 15 nmol/kg (% reduction compared to vehicle)(Day11)” value stood at 11.3% and the “Cumulative food intake reduction at 15 nmol/kg (% reduction compared to vehicle)(Day11)” value is recorded as 21.8%. For the same molecule, in series [4], the Cmax amounted to 10.4 nmol/L, the “AUC0-24 h” value was 0.0638 µM·h, the “Terminal t1/2” value came to 4.7 h and the time of peak concentration (Tmax) stood at 0.5 h.

B3: MLC006: fusion polypeptide SEQ ID NO: 253 conjugated with Moiety A at 36K of GLP-1 (conjugate)
chain: B2 chain with G30K, K32G
modifications: Moiety A conjugated at K36
Consider B3, for which, in series [1], the “Body weight reduction at 15 nmol/kg (% reduction compared to vehicle)(Day11)” value is reported as 9.3% and the “Cumulative food intake reduction at 15 nmol/kg (% reduction compared to vehicle)(Day11)” value turned out to be 23.0%. Also, in series [4], the Cmax is 9.9 nmol/L, the “AUC0-24 h” value came to 0.0719 µM·h, the “Terminal t1/2” value is 4.4 h and the time of peak concentration (Tmax) worked out at 2.7 h.

B4: MLC009: fusion polypeptide SEQ ID NO: 256 conjugated with Moiety A at 15K of Linker (conjugate)
chain: B2 chain with K32G, E46K
modifications: Moiety A conjugated at linker K15
On to B4, for which, in series [1], the BW reduction entry was “statistically significantly enhanced BW loss efficacy than Semaglutide”, the “Body weight reduction at 15 nmol/kg (% reduction compared to vehicle)(Day11)” value came out at 14.6% and the “Cumulative food intake reduction at 15 nmol/kg (% reduction compared to vehicle)(Day11)” value came to 23.9%. Besides, in series [4], the Cmax is 17 nmol/L, the “AUC0-24 h” value was determined as 0.1578 µM·h, the “Terminal t1/2” value amounted to 4.2 h and the time to peak (Tmax) was found to be 3.3 h.

B5: MLC005: fusion polypeptide SEQ ID NO: 252 conjugated with Moiety A at 12K of Linker (conjugate)
chain: B2 chain with K32G, P43K
modifications: Moiety A conjugated at linker K12
On to B5, for which, in series [1], the “Body weight reduction at 15 nmol/kg (% reduction compared to vehicle)(Day11)” value was found to be 12.6% and the “Cumulative food intake reduction at 15 nmol/kg (% reduction compared to vehicle)(Day11)” value is reported as 9.1%. Besides, in series [4], the Cmax stood at 16.7 nmol/L, the “AUC0-24 h” value came out at 0.1172 µM·h, the “Terminal t1/2” value was determined as 4.2 h and the time to peak (Tmax) turned out to be 2.0 h.

B6: MLC002: fusion polypeptide SEQ ID NO: 249 conjugated with Moiety A at 26K of GLP-1 (conjugate)
chain: B2 chain with R20K, K32G
modifications: Moiety A conjugated at K26
With B6, in series [1], the “Body weight reduction at 15 nmol/kg (% reduction compared to vehicle)(Day11)” value amounted to 5.0% and the “Cumulative food intake reduction at 15 nmol/kg (% reduction compared to vehicle)(Day11)” value came out at 7.5%. Besides, in series [4], the Cmax came out at 4.6 nmol/L, the “AUC0-24 h” value came to 0.0362 µM·h, the “Terminal t1/2” value stood at 5.0 h and the “Tmax” value worked out at 1.2 h.

B7: MLC008: fusion polypeptide SEQ ID NO: 255 conjugated with Moiety A at 6K of Linker (conjugate)
chain: B2 chain with K32G, Q37K
modifications: Moiety A conjugated at linker K6
As to B7, in series [1], the “Body weight reduction at 15 nmol/kg (% reduction compared to vehicle)(Day11)” value turned out to be 10.9% and the “Cumulative food intake reduction at 15 nmol/kg (% reduction compared to vehicle)(Day11)” value was determined as 19.5%. Also, in series [4], the Cmax is 20.8 nmol/L, the “AUC0-24 h” value amounted to 0.0822 µM·h, the “Terminal t1/2” value is 4.2 h and the “Tmax” value came to 0.7 h.

As a reminder, the Tmax is the time from dosing to the highest level.
